Assay results as given in publication PMC2555995 (The Journal of Biological Chemistry, 2008).

T1: His6-Nab2 (S. cerevisiae, UniProt P32505 1-525)
T1 sequence (looked up): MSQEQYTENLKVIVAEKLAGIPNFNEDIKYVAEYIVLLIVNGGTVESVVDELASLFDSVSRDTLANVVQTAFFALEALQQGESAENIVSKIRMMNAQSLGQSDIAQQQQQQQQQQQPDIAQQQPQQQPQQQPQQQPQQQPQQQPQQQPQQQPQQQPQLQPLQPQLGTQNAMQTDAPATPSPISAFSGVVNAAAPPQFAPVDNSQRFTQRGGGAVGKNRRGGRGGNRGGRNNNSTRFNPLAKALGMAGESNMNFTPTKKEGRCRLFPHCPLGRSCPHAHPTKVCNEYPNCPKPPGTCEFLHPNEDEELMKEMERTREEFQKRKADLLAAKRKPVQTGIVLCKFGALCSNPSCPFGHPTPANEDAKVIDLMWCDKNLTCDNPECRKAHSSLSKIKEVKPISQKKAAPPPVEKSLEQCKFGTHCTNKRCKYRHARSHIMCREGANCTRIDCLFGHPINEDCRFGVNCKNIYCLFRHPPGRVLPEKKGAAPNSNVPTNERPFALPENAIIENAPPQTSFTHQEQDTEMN

B1: GST-CT-Mlp1 (residues 1490–1875) (domain or fragment, S. cerevisiae, UniProt Q02455 1490-1875, looked up)
chain: AQERLNQPSNINMEEIKKKWESEHEQEVSQKIREAEEALKKRIRLPTEEKINKIIERKKEELEKEFEEKVEERIKSMEQSGEIDVVLRKQLEAKVQEKQKELENEYNKKLQEELKDVPHSSHISDDERDKLRAEIESRLREEFNNELQAIKKKSFDEGKQQAMMKTTLLERKLAKMESQLSETKQSAESPPKSVNNVQNPLLGLPRKIEENSNSPFNPLLSGEKLLKLNSKSSSGGFNPFTSPSPNKHLQNDNDKRESLANKTDPPTHLEPSFNIPASRGLISSSSTLSTDTNDEELTSNNPAQKDSSNRNVQSEEDTEKKKEGEPVKRGEAIEEQTKSNKRPIDEVGELKNDEDDTTENINESKKIKTEDEEEKETDKVNDENSI
B2: GST-Nab2-N-WT (residues 1–97) (domain or fragment, S. cerevisiae, UniProt P32505 1-97, looked up)
chain: MSQEQYTENLKVIVAEKLAGIPNFNEDIKYVAEYIVLLIVNGGTVESVVDELASLFDSVSRDTLANVVQTAFFALEALQQGESAENIVSKIRMMNAQ
B3: GST-Nab2-N-F72D (residues 1–97) (domain or fragment, S. cerevisiae, UniProt P32505 1-97, looked up)
chain: MSQEQYTENLKVIVAEKLAGIPNFNEDIKYVAEYIVLLIVNGGTVESVVDELASLFDSVSRDTLANVVQTADFALEALQQGESAENIVSKIRMMNAQ
B4: GST-Nab2-N-F73W (residues 1–97) (domain or fragment, S. cerevisiae, UniProt P32505 1-97, looked up)
chain: MSQEQYTENLKVIVAEKLAGIPNFNEDIKYVAEYIVLLIVNGGTVESVVDELASLFDSVSRDTLANVVQTAFWALEALQQGESAENIVSKIRMMNAQ

What was measured:
[1] = biological target: T1, His6-Nab2; experiment: pull-down
[2] = biological target: His6-S-Tag-Mlp1-NBD (residues 1586–1768) (S. cerevisiae, UniProt Q02455 1586-1768); experiment: ELISA

| binding result [1] | Kd [2] [nM] | Binder |
| --- | --- | --- |
| binds |  | B1 |
|  | 1260 | B2 |
|  | 2310 | B3 |
|  | 830 | B4 |
